Data taken from the DeepSol protein solubility set.

Assay: soluble on expression in E. coli; label from the status in PepcDB or PDB records

Sequence	soluble on expression in E. coli
MPREFKSFGSTEKSLLSKGHGEPSYSEIYAEPENFLEIEVHNPKTHIPNGMDSKGMFTDYEIICRTNLPSFHKRVSKVRRRYSDFEFFRKCLIKEISMLNHPKVMVPHLPGKILLSNRFSNEVIEERRQGLNTWMQSVAGHPLLQSGSKVLVRFIEAEKFVG	soluble
MDLEPIFLTPVFQERIWGGTKLAERFGYDIPSSQTGECWAVSAHPHGQTVVARGPFAGMTLGQLWEERRDLFGHFPSDRFPLLTKILDANADLSVQVHPDDEYAKTHEGGELGKTECWYIIDCKPGAKLIYGHYAETKGELRAMMEAGEWDRLLRKVPIRPGDFFYVPSGTIHALCEGTLVLETQQSSDTTYRVYDYDRVDSQGRKRELHLEKAIDVTTVPHRDIDVHPHVAEFPGATVTTFVEGDYFGVQKWDVHDAFASEQTKPFLIVSILKGEGELVHHERIYAIRQGDHFILPHQFGRFTIRGMLEAIASWPRAGK	not soluble
SGGTSSSTAHLAVVNIIGTIDSSNQSVNSEDTNKALERAFEAKNSKAVALNINSPGGSPVQSDEIWQEIRYLKKQHPDKKVYAVIGDMGASGAYYIASAADEIIVNPSSLVGSIGVIMPNYGITGLAQKLGIEDRTLTSGSNKDILSMTKPVNPAQREHIQSVLDNVHAHFINAVKEGRGTRLKSNDPAIFSGLFWTGEQAIQLGVAD	not soluble
MAHHHHHHMTGVASLHRESERSKRKSSGGERNADEADTEGTAGARNAHAKQKQKTVRQGVAVCVWCCGCLPALTARKQNKRERNVCSAPQALVARPHVTAPSARRSSRPLLMRAAGEAHRAVVMSVSVGVRVEQLGGKHTAPLTGRVQKKQLKEGRVEKKRTSTVIAPESKKEKGW	not soluble
MYFIGCGYNAFPVGSEYADFPHMDDKHKDREIRKFRYIIHAEQNALTFRCQDIKPEEHSMIFVTKCPCDECVPLIKGAGIKQIYAGDVDVGKKKADISYMKFGELEGVRKFTWQLNPSEAYSLDPNEPERREKHLSIKRSH	not soluble
MDSSEVVKVKQASIPAPGSILSQPNTEQSPAIVLPFQFEATTFGTAETAAQVSLQTADPITKLTAPYRHAQIVECKAILTPTDLAVSNPLTVYLAWVPANSPATPTQILRVYGGQSFVLGGAISAAKTIEVPLNLDSVNRMLKDSVTYTDTPKLLAYSRAPTNPSKIPTASIQISGRIRLSKPMLIAN	soluble
AHHHHHHGSLSERELERYDRQIMIFGIEGQEKLKKANVAVVGVGGLGSPVAYYLAAAGVGTILLIDEQTPELSNLNRQILHWEEDIEKNPKPISAKWKLERFNSNIKIETFVGRLSEENIDEVLSGVDVIVDCLDNFETRYLLDDFAHKKGIPLVHGAVEGFYGQVTTIIPGKTKRLREIFPKVKKKGKFPIVGATAGVIGTIQASEVIKLITGYGEPLANKLLIIDLANNTYEIIEI	soluble
MGSDKIHHHHHHMRIMPINSFENYPMSWKPSIDKAEKPIYKALAGQLEQDILNGVLLPGTKLPPQRELADYLDLNVSTISKAFKVCELKGLLSATVGSGTFVSYDALSNAYLLEDTKPTHLIEMGAILPDHASYEPLLYQLKNMVHEEDYEKWFSYGRAGESLWQKDAAVKLIQRGGFETSVDHILFANGGQNAIAATLASLCKPGDRIGVDHHTYPGLKTVASLLSVQIVPIKSENDEMSPESLEYACKNENIKGLYLIPDYHNPTTSFMSVENRRMVADIVKKYNLFVIEDASYHLLNKNPLPALASFAPQQVIHIASLSKSLAPGLRLAYVAVPRQYKEPISKALYNLNITVSPLLAELTARTIVSNQFEVLIESHREQTIRRNQLVNRYVAGYTCLGVETGIFRWLLLPGKMSGAEFEELAARLGVQVYAAERFVVGNSCPERAVRVSVCAPKTLEELEQGLMILRRLLDDLT	not soluble
MGSDKIHHHHHHMKKNVQIKGTKSGISIFLSDKASISELQQELSQLLADQKQNPYSGEKLEVQVQIGNRLFSEEEEREISTIIHNNSQMKISAFYSNVMSKDEAKKWKENDQIFSMATIIRSGQVVQVPGDFLLIGDVNPGGQIRSNGNVFVLGNIKGIIHAGFEGDENAVVAGKFLYPSQVRIAGKVYGFDSEDYKEVADTDLFSAFVNDAGEIVIDEIHKIRKIRPEISNFQGGR	not soluble
SLHRILLVDDEKDVGKIVSRLLAGDNYEIEQVTTGKEAMKRVLEESLPDIILLDINLPDIDGMDMLRDMKDAVRGTPIVMMTAYGSIETAVRSIKMGAMDFVQKPFNHYDFKRFINGVISARNIAGNDHCGIVGSSPQMKKVFRLVDKFALSDITILLQGESGTGKELFARAIHQKSKRRSGPFVPLDCAALSETLIESELFGHEKGAFTGATERKIGKFERAHGGTLFIDEVENLSSSNQAKLLRAVEEKQIERVGGTKAIKVDVRIVAASNIPLTEIINNGVFRKDLFYRFSQMTIAIPSLRDRVKDVDVLIRHFLAAYSEEFGNAANISEEALLLLNAYPWPGNVRELENVVKSAVILADGDILAKHLPEYIRKGSEG	soluble
GPGSMEPKSVEEYSQQNYWIGRYEVEEQHDWFLSVRQPTIAALCDELLKVFQQRERLHSADGNVEGDQPALRVLHLGTGNSSLCMDLYEAVRERQLPFALHQVAMDYAPNVIERMQSKYSPDILPNAQWIVGDVRKLEEFREYGPFDAVIEKGTMDAIEADKNRPEMKGDVEAMLHGVDTLLKHAKGYGAFLQVTWVAPHLRLPYTKGDAFAWGDQVRYSLLGESDIYRLFVYTVRE	soluble
MAHHHHHHMGNDEIFEDLFISDTEPEELYEELGPIGVGNYGSVIKARNRQTQAIAAIKLVLLVDKDERDFVQKEISILKKCVHPNIVRYYGAHKSLSKLWIVMEYCEGGSVDMVYKVLRHPLPENLIAYVCRQVLLGLQYLHANRKIHRDIKGGNILLTRDGDVKLADFGVSTELSHSLSRRNTFVGTLLWMSPEAILELDYDEKADLWSLGITLIEMAEGAPPYIDTHPARALFMIPKVDPPTLHDKDRWSPQMALFLKRLLIKDYRLRPTATAMLNDPFVAPEKIGTKEQMKAVIDEVLAKKEAMSPQRLHGETNSSATFVERTSTDTDGEDGVTNDTCTSGRAPTGAKVPANTSPVAMEAIDITGAHLFFHDGTLLPLPMLSTHDIGFDELGLGREGIGPFAKPVPDAESLLVPPEQRSTALHGSGGLAYTMHVTQTLKSMLYYHKQLPFFREVTDTEAIKSKELQLKYGSILKSIYRL	soluble
MKYPTIIDSQQLFREPDHPLKAGLDPKCRSTKPLCPDTFAKVMKTIDTFIFDADGVLWLGESVMPGSPRLIDYLVKHNKQIIVLTNNATKSRAVYAKKLAKLGYNSSKMNKNNLVNPAAVVADTLHRAGLDGKRVYLIGEQGLRDEMDELGIEYFGHGPEKKQDEADGSGAFMYDIKLEENVGAVVVGYEKHFDYIKMMKASNYLREEGVLFVATNEDETCPGPNPEVVIPDAGPIVAAIKCASGRDPLTVGKPCTPAFNYIKRKWNINPSRTMMIGDRTNTDVKFGRDHGMKTLLVLSGCHQIEDIIENQMNERDDMVPDYVAPCLGALVPERI	not soluble
MGSDKIHHHHHHMQIDQIETFLDLLETQSFNRTADRLDVTQSTVSGRVKALEKALGERLFERSRSGTQPTTAALRFETHARVLRRAWADGQADVKPFGTAVMLRIGIQHDLIDNHVADWLAALRQALPECGFYVDGDYSTQMCRDLETGALDLGVVFTPRPSPDLYFESMGEVTYQMVSTAQTSLPQIDPTNYILPNYAPAFAQTHAALLPGLSLGSVSSGQAAAVRGLLIALGGTTYLPTEMVSALITEGIAHHVPGAPDITQPVFVAMHLRNRHRAGYRRMANVLRDRVGT	not soluble
MADIVQLKENGVVKYMKTHADAIDGVEGKLVKAVGNETVLGTKNFQDGIQIGGKSVSVNAKPTYEVVKDYWDGTGAYLTESQSVTISNSSNVDEIVLIFSRYNDNGGGIVHSIPVTPNITKLKYELPAVAWVGSASTDPTIAYKKISISKSGTSLVITGDTANTLNEANKKIVFREIGVMRRK	not soluble
MLEQVCQLARNAGDAIMQVYDGAKPMEYARKQDDSPVTAADIAAHTVILEGLRTLTPDIPVLSEEDPPAWEVRQHWQRYWLVDPLDGTKEFIKRNGEFTVNIALIEQGKPVLGVVYAPVLKVMYYAAEGKAWKEECGVRKQIQVRDARPPLVVISRSHTDDELTEYLQQLGEHQTTSIGSSLKFCLVAEGQAQLYPRFGPTSVWDTAAGHAIAVAAGAHVHDWQGKTLDYTPRESFLNPGFRVTIY	not soluble
MGSDKIHHHHHHMRIQQLRYLEKIATTGSINEAAKQLFISQPSLSQAMKELEKEYQVQLFYRHKTGITLTDAGREFINYSRSVLDQVNLLNEHFGQGTVRKRIFSVSAQHYAFVVNAFVELVKEIGGDTYQFTLRETETANVLNDVQTLKSELGVIYLNKFNQTVLSRLIADKDLSFVPLFEARPHVFVGRDNPLTHKQDLTLDDLRDYPYLSYEQGDTSSFYFAEEILSTLPHKKHIRISDRATIFNLMVGLNGYTISSGIISSELNDEKIVAIPLKVDDAMTLGYLRHKKIELSATAQRYLTLLKQHIQGYGFDVFNDN	not soluble
MGHHHHHHSHIVERVIEATLPTKFYGTFRAVGYKTPLGEIVALVKGRVDEGDVLVRIHSECLTGDVFHSLRCDCGDQLENALKMIDREGKGVAIYMRGHEGRGIGLINKLMAYKLQEEGKDTVDANIELGFPPDMRSYGIAAQILMDLKVKSIRLLTNNPLKIEELKKYGFKIVREPIE	soluble
MIADDPHLELRLAASERDLRAAQRLRYTVFVEELGGDGDLVDHAERLERDEFDDLCDHLLLIDRRRDAAALEDVVGVYRLLPGERAAGAGRFYCDSEYDLDPLRASGRRVLELGRSCVHPDYRGGAAVFLLWSGLADYALAQRTELLFGVASFHGTDIEALAEPLSYLHAFHLAPEELRVRARSEGGQRMDLIPPERIDRRAAMLAMPPLIKAYLRLGGVVGEGAWIDRAFNTTDVCLLMDTARMSARHRDFYARRTVSAE	not soluble
MGSDKIHHHHHHMNGKAVQLKEEADEPGWEVDPDDEWGVAVVETVGRQLKLRREALGMRAADFGTAVGYGEDMVYKIESGKRIPRPEFLDRADELLGAGGLLSAMKEDVKKVRYPKNVREIAKLEAQAVELGVYVGLSLHGLLQTPEHARALFEVWQPAYSPEEAERRMAARMARKAIFERSPAPALSFVQEEATLRRPVGGTMVWRQQLEHLLEVGQLRNVTLQVMPTNSEAHPGLSGRIEVLKFSDGTAVGRSDGAYNGRPISDPKQLRILELRYGTIRAQALPPRESLAFIEQLLGET	not soluble
MGSDKIHHHHHHMNTLEKRQHEILTNPLHFCKKSGDFAKHSMSIKLSKNELFDVDFVTGIYFVEKGIVMKGTQIDDYIGYDQLLKPGDVCNFSSFMSSDLKRNIGAQLLSPSSSVITAVDRDFFIFMVEKHVSVEEFMLYQAKKEIMILQRRCLLNTLKVKDRVKHLIAAIGYEYGISNGDNIQIPQELSTTFLSKFMGITREYLSLTLSELKKEDYLLNTKIPVVINVEKLFNEIPYESLIL	not soluble
VSELSVATGAVSTASSSIPMPAGVNPADLAAELAAVVTESVDEDYLLYECDGQWVLAAGVQAMVELDSDELRVIRDGVTRRQQWSGRPGAALGEAVDRLLLETDQAFGWVAFEFGVHRYGLQQRLAPHTPLARVFSPRTRIMVSEKEIRLFDAGIRHREAIDRLLATGVREVPQSRSVDVSDDPSGFRRRVAVAVDEIAAGRYHKVILSRCVEVPFAIDFPLTYRLGRRHNTPVRSFLLQLGGIRALGYSPELVTAVRADGVVITEPLAGTRALGRGPAIDRLARDDLESNSKEIVEHAISVRSSLEEITDIAEPGSAAVIDFMTVRERGSVQHLGSTIRARLDPSSDRMAALEALFPAVTASGIPKAAGVEAIFRLDECPRGLYSGAVVMLSADGGLDAALTLRAAYQVGGRTWLRAGAGIIEESEPEREFEETCEKLSTLTPYLVARQ	soluble
